The record followed here is US20120034215A1 (Daiichi Sankyo, published 2012).

The target of assay [1] is MST1R on cells (293alpha cells transfected with pcDNA-DEST40 MST1R; endogenous on PC3, T-47D and BxPC-3 cells) (human, UniProt Q04912 25-1400). The experiment in a line: cell-based or functional assay.
Assay [2] deals with T1, mouse MST1R with N-terminal Flag tag, expressed on HEK293T cells (mouse, UniProt Q62190 24-1378).
T1 construct: ORF cloned excluding the signal peptide region; not shown: N-terminal Flag tag from vector pFLAG-myc-CMV-19 (Sigma)
T1 sequence: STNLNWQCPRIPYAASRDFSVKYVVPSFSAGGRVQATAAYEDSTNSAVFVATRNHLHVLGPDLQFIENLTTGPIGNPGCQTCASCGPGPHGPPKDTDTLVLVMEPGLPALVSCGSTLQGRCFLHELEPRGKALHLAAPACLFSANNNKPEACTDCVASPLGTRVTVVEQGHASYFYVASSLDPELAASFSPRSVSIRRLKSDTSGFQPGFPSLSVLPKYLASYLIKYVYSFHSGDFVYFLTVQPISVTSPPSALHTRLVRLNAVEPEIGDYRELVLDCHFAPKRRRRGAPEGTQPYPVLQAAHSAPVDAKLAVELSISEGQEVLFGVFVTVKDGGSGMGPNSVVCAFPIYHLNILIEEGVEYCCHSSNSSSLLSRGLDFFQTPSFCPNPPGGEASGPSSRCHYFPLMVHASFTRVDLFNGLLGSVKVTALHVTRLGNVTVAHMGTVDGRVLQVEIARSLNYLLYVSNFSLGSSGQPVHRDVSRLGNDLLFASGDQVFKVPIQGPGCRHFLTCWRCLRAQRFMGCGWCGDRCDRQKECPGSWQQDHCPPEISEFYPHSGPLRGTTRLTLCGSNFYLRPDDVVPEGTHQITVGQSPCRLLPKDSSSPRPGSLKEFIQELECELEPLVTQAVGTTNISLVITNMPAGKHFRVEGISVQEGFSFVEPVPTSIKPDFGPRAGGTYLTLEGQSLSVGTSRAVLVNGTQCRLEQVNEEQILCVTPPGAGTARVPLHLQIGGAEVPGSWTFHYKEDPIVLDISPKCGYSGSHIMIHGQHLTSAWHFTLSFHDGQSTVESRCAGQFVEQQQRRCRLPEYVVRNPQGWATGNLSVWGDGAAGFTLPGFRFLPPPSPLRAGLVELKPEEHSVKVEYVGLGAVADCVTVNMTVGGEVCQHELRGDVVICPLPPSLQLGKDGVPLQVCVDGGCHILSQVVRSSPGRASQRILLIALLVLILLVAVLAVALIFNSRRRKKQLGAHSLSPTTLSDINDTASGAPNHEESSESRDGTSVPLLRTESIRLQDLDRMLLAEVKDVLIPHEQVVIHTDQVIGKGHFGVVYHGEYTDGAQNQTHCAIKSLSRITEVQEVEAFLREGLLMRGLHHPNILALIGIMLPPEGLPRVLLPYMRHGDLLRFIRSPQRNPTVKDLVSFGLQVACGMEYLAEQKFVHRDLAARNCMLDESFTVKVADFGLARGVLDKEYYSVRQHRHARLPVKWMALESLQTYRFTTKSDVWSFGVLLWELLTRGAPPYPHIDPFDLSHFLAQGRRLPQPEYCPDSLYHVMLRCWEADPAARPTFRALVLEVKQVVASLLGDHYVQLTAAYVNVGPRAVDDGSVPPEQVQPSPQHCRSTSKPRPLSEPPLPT
Description: flow cytometry on HEK293T cells transfected with Flag-tagged mouse MST1R (expression shown by αFlag), FITC-labeled secondary antibody. As for the experimental part: Cells (5×10⁵ cells/well) were incubated with Fab or IgG antibodies at the indicated concentrations in 50 μl FACS buffer (PBS, 5% FCS) for 60 min at 4° C. in round bottom 96-well culture plates (Corning). Cells were washed twice and then incubated with Fluorescein Isothiocyanate (FITC) conjugated detection antibody for 30 min at 4° C. Cells were washed again, resuspended in 0.3 ml FACS buffer and then analyzed by flow cytometry in a Cytomics FC500 (Beckman Coulter, Inc.). Data were analysed via FlowJo software (Tomy digital biology Co., Ltd.). Polyclonal goat anti-hMSP R IgG (R&D systems) or anti-FLAG M2 antibody (Sigma) was used as a positive control and MOR03207 (anti-lysozyme) antibody was used as a negative control.
FACS-analysis of MST1R ortholog-expressing cells: Human MST1R (cDNA nucleotide sequence is shown as GenBank Accession No: NM_{—}002447.2), cynomolgus monkey MST1R and mouse MST1R (cDNA nucleotide sequence is shown as GeneBank Accession No: NM_{—}009074.1) expression vector containing N-terminal Flag tag (pFLAG-myc-CMV-19, Sigma) were constructed. cDNA encoding cynomolgus monkey MST1R was amplified by PCR using cynomolgus monkey stomach cDNA as a template with forward and reverse primers having nucleotide sequences of SEQ ID NO: 34 and 35, respectively. By sequencing analysis of PCR product, the cynomolgus MST1R ORF nucleotide sequence was identified as shown in SEQ ID NO: 36. The corresponding amino acid sequence was shown in SEQ ID NO: 37. Then human, cynomolgus monkey and mouse MST1R ORF cDNA, excluding signal peptide regions, were amplified using respective forward and reverse primers having nucleotide sequences of SEQ ID NO: 38 and 39 (human), 40 and 41 (cynomolgus monkey), and 42 and 43 (mouse) with appropriate cloning sites and then cloned into pFLAG-myc-CMV-19. An amplified human MST1R fragment encodes amino acids corresponding to GenBank Accession No: NP_{—}002438.2 (SEQ ID NO: 45). A Mouse MST1R fragment encodes amino acids corresponding to GenBank Accession No: NP_{—}033100.1 (SEQ ID NO: 47) except for those amino acid differences at positions: 688 (Leu to Pro), 713 (Ile to Val), 714 (Ala to Gly) and 719 (Ala to Val). These expression vectors were transfected into HEK293T cells. For FACS-analysis, cells were incubated with 2 μg/ml primary antibodies followed by incubation with FITC-labeled secondary antibody as described above.
Background: A flow cytometer gives signals particle by particle.

B1: MOR07923 (human IgG1) (antibody, V domains shown)
VH: QVQLVESGGGLVQPGGSLRLSCAASGFTFNSYSMSWVRQAPGKGLEWVSYISSRSSTTYYADSVKGRFTISRDNSKNTLYLQMNSLRAEDTAVYYCARGYFHGMDYWGQGTLVTVSS
VL: DIVLTQSPATLSLSPGERATLSCRASQSVSFDYLGWYQQKPGQAPRLLIYGASNRATGVPARFSGSGSGTDFTLTISSLEPEDFATYYCFQYLIVPFTFGQGTKVEIKR
Regarding B1, the “Reporter assay IC50 (ng/ml); Elk1 luciferase reporter gene assay in the presence of 100 ng/ml MSP” value (“Reporter assay IC50 (ng/ml)” below) in assay [1] was found to be 9 ng/mL. For the same molecule, the binding result in assay [2] is reported as “no binding (tested: 2 µg/ml)”.

B2: MOR07926 (human IgG1) (antibody, V domains shown)
VH: QVQLVESGGGLVQPGGSLRLSCAASGFTFNSYSMSWVRQAPGKGLEWVSYISSRSSTTYYADSVKGRFTISRDNSKNTLYLQMNSLRAEDTAVYYCARGYFHGMDYWGQGTLVTVSS
VL: DIVLTQSPATLSLSPGERATLSCRASQSVSFDYLGWYQQKPGQAPRLLIYGASNRATGVPARFSGSGSGTDFTLTISSLEPEDFATYYCFQALIMPFTFGQGTKVEIKR
As for B2, the “Reporter assay IC50 (ng/ml)” value in assay [1] is 11.4 ng/mL. The binding result in assay [2] is reported as “no binding (tested: 2 µg/ml)”.

B3: MOR07925 (human IgG1) (antibody, V domains shown)
VH: QVQLVESGGGLVQPGGSLRLSCAASGFTFNSYSMSWVRQAPGKGLEWVSYISSRSSTTYYADSVKGRFTISRDNSKNTLYLQMNSLRAEDTAVYYCARGYFHGMDYWGQGTLVTVSS
VL: DIVLTQSPATLSLSPGERATLSCRASQSVSFDYLGWYQQKPGQAPRLLIYGASNRATGVPARFSGSGSGTDFTLTISSLEPEDFATYYCLQYFNPPHTFGQGTKVEIKR
B3: in assay [1], the “Reporter assay IC50 (ng/ml)” value was 5.9 ng/mL. Also, in assay [2], the binding result was “no binding (tested: 2 µg/ml)”.

B4: MOR07924 (human IgG1) (antibody, V domains shown)
VH: QVQLVESGGGLVQPGGSLRLSCAASGFTFNSYSMSWVRQAPGKGLEWVSYISSRSSTTYYADSVKGRFTISRDNSKNTLYLQMNSLRAEDTAVYYCARGYFHGMDYWGQGTLVTVSS
VL: DIVLTQSPATLSLSPGERATLSCRASQSVSFDYLGWYQQKPGQAPRLLIYGASNRATGVPARFSGSGSGTDFTLTISSLEPEDFATYYCQQYNINPFTFGQGTKVEIKR
B4: the “Reporter assay IC50 (ng/ml)” value in assay [1] turned out to be 15.7 ng/mL. In assay [2], the binding result is “no binding (tested: 2 µg/ml)”.

B5: MOR07692 (human IgG1) (antibody, V domains shown)
VH: QVQLVESGGGLVQPGGSLRLSCAASGFTFNSYSMSWVRQAPGKGLEWVSYISSRSSTTYYADSVKGRFTISRDNSKNTLYLQMNSLRAEDTAVYYCARGYFHGMDYWGQGTLVTVSS
VL: DIVLTQSPATLSLSPGERATLSCRASQSVSFDYLGWYQQKPGQAPRLLIYGASNRATGVPARFSGSGSGTDFTLTISSLEPEDFATYYCQQYYNMPYTFGQGTKVEIKR
Regarding B5, the “Reporter assay IC50 (ng/ml)” value in assay [1] is 4.4 ng/mL. The binding result in assay [2] is “no binding (tested: 2 µg/ml)”.
